Bridge positions count the residues as written; N and C are the ends. Square brackets hold non-standard residues; d marks the D form. Peptide text beside a SMILES is read from it. * marks the point of attachment. NOTA = O=C(O)CN1CCN(CC(=O)O)CCN(CC(=O)*)CC1; 2Nal = N[C@@H](Cc1ccc2ccccc2c1)C(=O)O; Pen = CC(C)(S)[C@H](N)C(=O)O; 4Amb = NCc1ccc(C(=O)O)cc1; Ahx = NCCCCCC(=O)O

The format of this series is in vitro ADME, human. As to the method:
The in vitro and in vivo stability of [^18F]AlF-NOTA-QHY-04 were evaluated by radio-HPLC to examine the RCP after different incubation periods. The binding affinity of the unlabeled precursor to CXCR4 was measured using the biolayer interferometry Octet Red96 system (PALL ForteBio, USA). The details are supplied in the supplemental materials.
Synthesis of [18F]AlF-NOTA-QHY-04
Briefly, NOTA-QHY-04 was radiolabeled with [18F]F-, following procedures. 10-20 […]
GBq [18F]F− produced by medical cyclotron (MINITRACE Cyclotron, GE, USA) was […]
captured with a QMA SepPak light cartridge (Waters Corporation, USA) and then eluted […]
with 300-500 μL saline (0.9% NaCl). Then, the saline containing [18F]F− was added to […]
The partition coefficient (logD) of [18F]AlF-NOTA-QHY-04 was determined in a […]
from each phase were measured for radioactivity using a γ-counter. […]
repeated three times to ensure the accuracy of the results. The logD was calculated by […]
dividing the average radioactivity in the 1 -octanol layer by that in the PBS layer, and the […]
human serum albumin solution were evaluated by radio-HPLC to examine the radiochemical purity after different incubation periods. For the saline study, 200 μL of [18F]AlF-NOTA-QHY-04 (0.74–3.70 MBq) was incubated at 37°C with 800 μL of saline for 1 h, 3 h and 6 h respectively, and then directly evaluated by radio -HPLC. […]

As to `C[C@H](NC(=O)[C@H](CCCNC(=N)N)NC(=O)CCCCCNC(=O)c1ccc(CNC(=O)CN2CCN(CC(=O)O)CCN(CC(=O)O)CC2)cc1)C(=O)N[C@@H]1CSSC(C)(C)[C@@H](C(=O)O)NC(=O)[C@H](Cc2c[nH]cn2)NC(=O)[C@H](Cc2ccc3ccccc3c2)NC(=O)[C@H](CCCNC(=N)N)NC1=O` [[^18F]AlF-NOTA-QHY-04] ({NOTA-4Amb-Ahx}-RA[dC]R[2Nal]H[Pen]-OH; disulfide 3-7), the “radiochemical purity after incubation in 5% human serum albumin solution” value is recorded as “above 95%”.

The record behind these values is article PMC11488100, “PET imaging of CXCR4 expression using [^18F]AlF-NOTA-QHY-04 for hematologic malignancy and solid tumors” (Theranostics, 2024).
